Data from patent CN106749656A (UNIV ZHENGZHOU NORMAL, dated 2017).

Assays:
[1] = target: T1, 小鼠重组RCN3蛋白 (mouse, UniProt Q8BH97 21-328, limits assumed); assay: phage ELISA, plate coated with 3 μg/mL mouse RCN3 (GST and BSA as controls), HRP anti-M13
T1 construct: Recombinant mouse RCN3 used as coating antigen and in the Western blot; GST and BSA were run as control antigens; also called 小鼠RCN3蛋白; 重组小鼠RCN3蛋白
T1 sequence (looked up): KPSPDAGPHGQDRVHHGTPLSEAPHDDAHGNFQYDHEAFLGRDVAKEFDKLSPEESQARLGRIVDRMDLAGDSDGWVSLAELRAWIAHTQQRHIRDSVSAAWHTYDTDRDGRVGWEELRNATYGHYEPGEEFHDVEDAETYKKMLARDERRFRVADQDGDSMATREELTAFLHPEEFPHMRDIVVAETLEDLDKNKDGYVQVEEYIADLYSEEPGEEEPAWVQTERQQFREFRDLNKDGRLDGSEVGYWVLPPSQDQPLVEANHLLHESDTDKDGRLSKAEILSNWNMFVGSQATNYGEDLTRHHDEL

[2] = target: T1, 小鼠重组RCN3蛋白; assay: ELISA, plate coated with 3 μg/mL mouse RCN3 (GST and BSA as controls), ScFv-Fc as first antibody, HRP goat anti-human IgG

Binder	binding result [1]	binding result [2]
全人源抗小鼠RCN3蛋白单链ScFv抗体的噬菌体克隆 (scFv, The scFv stood on the surface of M13 phage in the assay; also called 单克隆噬菌体) scFv: ELQMTQSPSSLSASVGDRVTITCQASQDITYHLNWYQQKPGKAPKLLIYDASNLVTGVPSRFSGSGSGTDFTVTISSLQPEDFATYYCQHYYNRPPTFGQGTRLEIKGGSSRSSSSGGGGSGGGGQVQLVQSGGGVVQPGRSLRLSCAASGFTFSSYGMHWVRQAPGKGLEWVAVISYDGSNKYYADSVKGRFTISRDNSKNTLYLQMNSLRAEDTAVYYCARDLGTHAFDIWGQGTMVTVSS	binds	
全人源抗小鼠RCN3带有Fc标签的单链ScFv抗体 (Fc fusion, also called ScFv-Fc抗体; 抗小鼠RCN3蛋白ScFv-Fc抗体; not shown: Fc tag from the eukaryotic expression vector pFUSERTL1) scFv: ELQMTQSPSSLSASVGDRVTITCQASQDITYHLNWYQQKPGKAPKLLIYDASNLVTGVPSRFSGSGSGTDFTVTISSLQPEDFATYYCQHYYNRPPTFGQGTRLEIKGGSSRSSSSGGGGSGGGGQVQLVQSGGGVVQPGRSLRLSCAASGFTFSSYGMHWVRQAPGKGLEWVAVISYDGSNKYYADSVKGRFTISRDNSKNTLYLQMNSLRAEDTAVYYCARDLGTHAFDIWGQGTMVTVSS		binds
